Biological target: T1, WT CcdB (Controller of Cell Death protein B) (Escherichia coli (F-plasmid), UniProt P62554)
T1 construct: also called CcdB-WT
Assay: thermal shift assay (Sypro orange)
Conditions: both partners purified

## KAENQEGMAEVARFIEMNGSFADENRDW [CcdA peptide (45–72)]
  binding result: binds

From PMC9491731 (PLoS Genetics, 2022)
